Measurements reported in article PMC5053136 (Acta Crystallographica. Section D, Structural Biology, 2016).

Biological target: the molecule itself
Test: SAXS with online ion-exchange chromatography (IEC-SAXS)

B1: D5_(323–785), the D5N and helicase domains of the Vaccinia virus helicase–primase D5 (domain or fragment)
chain: GNKLFNIAQRILDTNSVLLTERGDYIVWINNSWKFNSEEPLITKLILSIRHQLPKEYSSELLCPRKRKTVEANIRDMLVDSVETDTYPDKLPFKNGVLDLVDGMFYSGDDAKKYTCTVSTGFKFDDTKFVEDSPEMEELMNIINDIQPLTDENKKNRELYEKTLSSCLCGATKGCLTFFFGETATGKSTTKRLLKSAIGDLFVETGQTILTDVLDKGPNPFIANMHLKRSVFCSELPDFACSGSKKIRSDNIKKLTEPCVIGRPCFSNKINNRNHATIIIDTNYKPVFDRIDNALMRRIAVVRFRTHFSQPSGREAAENNDAYDKVKLLDEGLDGKIQNNRYRFAFLYLLVKWYKKYHVPIMKLYPTPEEIPDFAFYLKIGTLLVSSSVKHIPLMTDLSKKGYILYDNVVTLPLTTFQQKISKYFNSRLFGHDIESFINRHKKFANVSDEYLQYIFIEDISSP
notes: also called D5R fragment
- stoichiometry N: 6
